According to patent publication US20140087995A1 (published 2014):
Numbered stars: 1 amine (or outer) side, 2 acyl side, 3 side chain; on linkers, the order of the positions; unused ones are H or OH. Bridge positions count the residues as written; N and C are the ends. Side chains are listed from the residue outwards. Ends that are not written are not given here. * marks the point of attachment. C20 diacid = O=C(O)CCCCCCCCCCCCCCCCCCC(=O)*; γGlu = O=C(O)[C@H](CCC(=O)[*:2])N[*:1]

T1: human amylin receptor (amylin 3(a) receptor: human calcitonin receptor with RAMP-3) (human, UniProt P30988 25-474; O60896 24-148)
T1 construct: whole, on cells; Assay used cell membranes of the Amylin 3(a)/CRE-luc BHK cells, not intact cells; also called hAmylin-R; hAmylinR
T1 sequence (looked up) 1: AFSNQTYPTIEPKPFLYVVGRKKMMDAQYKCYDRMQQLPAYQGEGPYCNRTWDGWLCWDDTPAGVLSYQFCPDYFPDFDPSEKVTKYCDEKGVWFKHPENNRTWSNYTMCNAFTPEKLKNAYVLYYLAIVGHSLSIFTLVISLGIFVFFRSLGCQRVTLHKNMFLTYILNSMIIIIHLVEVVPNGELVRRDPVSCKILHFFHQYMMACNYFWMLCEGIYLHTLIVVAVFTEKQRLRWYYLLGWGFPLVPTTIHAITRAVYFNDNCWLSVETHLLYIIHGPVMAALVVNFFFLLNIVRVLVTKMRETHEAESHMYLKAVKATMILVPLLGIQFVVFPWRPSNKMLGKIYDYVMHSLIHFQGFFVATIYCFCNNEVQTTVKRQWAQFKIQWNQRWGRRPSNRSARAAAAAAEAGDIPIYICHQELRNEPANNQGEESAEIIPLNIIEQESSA
T1 sequence (looked up) 2: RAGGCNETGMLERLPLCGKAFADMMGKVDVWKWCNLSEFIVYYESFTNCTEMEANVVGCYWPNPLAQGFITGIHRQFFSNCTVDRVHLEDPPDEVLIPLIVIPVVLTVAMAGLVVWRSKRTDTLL

T2: human calcitonin receptor (human, UniProt P30988 25-474)
T2 construct: whole, on cells; Assay used cell membranes, not intact cells; also called hCTR; hCT
T2 sequence (looked up): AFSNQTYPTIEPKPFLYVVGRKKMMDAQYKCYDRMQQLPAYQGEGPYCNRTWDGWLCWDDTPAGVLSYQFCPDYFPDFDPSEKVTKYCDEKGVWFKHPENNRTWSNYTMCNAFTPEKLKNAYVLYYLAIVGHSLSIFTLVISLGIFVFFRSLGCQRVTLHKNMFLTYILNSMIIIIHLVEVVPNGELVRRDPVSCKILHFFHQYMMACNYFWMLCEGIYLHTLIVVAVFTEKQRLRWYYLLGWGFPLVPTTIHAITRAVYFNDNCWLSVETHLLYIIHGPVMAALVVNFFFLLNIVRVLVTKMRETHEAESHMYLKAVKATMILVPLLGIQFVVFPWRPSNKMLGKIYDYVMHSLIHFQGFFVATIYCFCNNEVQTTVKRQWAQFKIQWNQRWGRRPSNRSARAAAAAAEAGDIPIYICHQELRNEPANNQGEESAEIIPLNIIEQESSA


Assays:
[1] = target: T1, human amylin receptor (amylin 3(a) …); assay: SPA competition with 125I-rat amylin on membranes of BHK cells with human calcitonin receptor and RAMP-3 (Assay V)
Method in brief: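 SPA beads with BHK Amylin 3(a)/CRE-luc cell membranes (35 ng/μL final) in 50 mM Hepes pH 7.4, 1 mM CaCl2, 5 mM MgCl₂, 0.1% OA, 0.02% Tween20.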

[2] = target: T2, human calcitonin receptor; assay: ratio IC50 hCTR / IC50 hAmylin-R (reference: human amylin receptor), SPA competition assays
Method in brief: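 Competition binding by SPA with cell membranes (35 ng/μL) and SPA beads in 50 mM Hepes pH 7.4 with 1 mM CaCl2, 5 mM MgCl2, 0.1% OA and 0.02% Tween20. Incubated 120 min at 25 °C with shaking, then counted.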

[3] = target: T2, human calcitonin receptor; assay: SPA competition with 125I-calcitonin on membranes of BHK cells with human calcitonin receptor (Assay VII)
Method in brief: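 BHK hCTR membranes 35 ng/μL + SPA beads 0.05 mg/well; buffer 50 mM Hepes pH 7.4, 1 mM CaCl2, 5 mM MgCl₂, 0.1% OA, 0.02% Tween20. 120 min, 25° C., shaking. Scintillation count; IC50 by one-site binding competition.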

Binder	IC50 [1]	Ratio hCT/hAmylin binding [2]	IC50 [3]
K([γGlu-C20 diacid])CNTATCATQRLAEFLRHSSPNFGAIPSSTNVGPHTY-NH2 (disulfide 2-7)	0.179 nM	21.2	3.8 nM
K([γGlu-C20 diacid])CNTATCATQRLAEFLRHSSPNFGAIPSSTNVGRETY-NH2 (disulfide 2-7; N-terminus assumed; SMILES CC[C@H](C)[C@H](NC(=O)[C@H](C)NC(=O)CNC(=O)[C@H](Cc1ccccc1)NC(=O)[C@H](CC(N)=O)NC(=O)[C@@H]1CCCN1C(=O)[C@H](CO)NC(=O)[C@H](CO)NC(=O)[C@H](Cc1c[nH]cn1)NC(=O)[C@H](CCCNC(=N)N)NC(=O)[C@H](CC(C)C)NC(=O)[C@H](Cc1ccccc1)NC(=O)[C@H](CCC(=O)O)NC(=O)[C@H](C)NC(=O)[C@H](CC(C)C)NC(=O)[C@H](CCCNC(=N)N)NC(=O)[C@H](CCC(N)=O)NC(=O)[C@@H](NC(=O)[C@H](C)NC(=O)[C@@H]1CSSC[C@H](NC(=O)[C@@H](N)CCCCNC(=O)CC[C@H](NC(=O)CCCCCCCCCCCCCCCCCCC(=O)O)C(=O)O)C(=O)N[C@@H](CC(N)=O)C(=O)N[C@@H]([C@@H](C)O)C(=O)N[C@@H](C)C(=O)N[C@@H]([C@@H](C)O)C(=O)N1)[C@@H](C)O)C(=O)N1CCC[C@H]1C(=O)N[C@@H](CO)C(=O)N[C@@H](CO)C(=O)N[C@H](C(=O)N[C@@H](CC(N)=O)C(=O)N[C@H](C(=O)NCC(=O)N[C@@H](CCCNC(=N)N)C(=O)N[C@@H](CCC(=O)O)C(=O)N[C@H](C(=O)N[C@@H](Cc1ccc(O)cc1)C(N)=O)[C@@H](C)O)C(C)C)[C@@H](C)O)	0.232 nM	28.5	6.62 nM
K([γGlu-C20 diacid])CNTATCATQRLAEFLRHSSPNFGAIPSSTNVGSHTY-NH2 (disulfide 2-7; N-terminus assumed; SMILES CC[C@H](C)[C@H](NC(=O)[C@H](C)NC(=O)CNC(=O)[C@H](Cc1ccccc1)NC(=O)[C@H](CC(N)=O)NC(=O)[C@@H]1CCCN1C(=O)[C@H](CO)NC(=O)[C@H](CO)NC(=O)[C@H](Cc1c[nH]cn1)NC(=O)[C@H](CCCNC(=N)N)NC(=O)[C@H](CC(C)C)NC(=O)[C@H](Cc1ccccc1)NC(=O)[C@H](CCC(=O)O)NC(=O)[C@H](C)NC(=O)[C@H](CC(C)C)NC(=O)[C@H](CCCNC(=N)N)NC(=O)[C@H](CCC(N)=O)NC(=O)[C@@H](NC(=O)[C@H](C)NC(=O)[C@@H]1CSSC[C@H](NC(=O)[C@@H](N)CCCCNC(=O)CC[C@H](NC(=O)CCCCCCCCCCCCCCCCCCC(=O)O)C(=O)O)C(=O)N[C@@H](CC(N)=O)C(=O)N[C@@H]([C@@H](C)O)C(=O)N[C@@H](C)C(=O)N[C@@H]([C@@H](C)O)C(=O)N1)[C@@H](C)O)C(=O)N1CCC[C@H]1C(=O)N[C@@H](CO)C(=O)N[C@@H](CO)C(=O)N[C@H](C(=O)N[C@@H](CC(N)=O)C(=O)N[C@H](C(=O)NCC(=O)N[C@@H](CO)C(=O)N[C@@H](Cc1c[nH]cn1)C(=O)N[C@H](C(=O)N[C@@H](Cc1ccc(O)cc1)C(N)=O)[C@@H](C)O)C(C)C)[C@@H](C)O)	0.992 nM	26.4	26.1 nM
K([γGlu-C20 diacid])CNTATCATQRLAEFLRHSSPNFGAIPSSTNVGPRTY-NH2 (disulfide 2-7; N-terminus assumed; SMILES CC[C@H](C)[C@H](NC(=O)[C@H](C)NC(=O)CNC(=O)[C@H](Cc1ccccc1)NC(=O)[C@H](CC(N)=O)NC(=O)[C@@H]1CCCN1C(=O)[C@H](CO)NC(=O)[C@H](CO)NC(=O)[C@H](Cc1c[nH]cn1)NC(=O)[C@H](CCCNC(=N)N)NC(=O)[C@H](CC(C)C)NC(=O)[C@H](Cc1ccccc1)NC(=O)[C@H](CCC(=O)O)NC(=O)[C@H](C)NC(=O)[C@H](CC(C)C)NC(=O)[C@H](CCCNC(=N)N)NC(=O)[C@H](CCC(N)=O)NC(=O)[C@@H](NC(=O)[C@H](C)NC(=O)[C@@H]1CSSC[C@H](NC(=O)[C@@H](N)CCCCNC(=O)CC[C@H](NC(=O)CCCCCCCCCCCCCCCCCCC(=O)O)C(=O)O)C(=O)N[C@@H](CC(N)=O)C(=O)N[C@@H]([C@@H](C)O)C(=O)N[C@@H](C)C(=O)N[C@@H]([C@@H](C)O)C(=O)N1)[C@@H](C)O)C(=O)N1CCC[C@H]1C(=O)N[C@@H](CO)C(=O)N[C@@H](CO)C(=O)N[C@H](C(=O)N[C@@H](CC(N)=O)C(=O)N[C@H](C(=O)NCC(=O)N1CCC[C@H]1C(=O)N[C@@H](CCCNC(=N)N)C(=O)N[C@H](C(=O)N[C@@H](Cc1ccc(O)cc1)C(N)=O)[C@@H](C)O)C(C)C)[C@@H](C)O)	0.163 nM	38.6	6.3 nM

More lines, in order of falling IC50 [1], values ahead:

IC50 [1]	Ratio hCT/hAmylin binding [2]	IC50 [3]	Binder
0.281 nM	151	42.5 nM	K([γGlu-C20 diacid])CNTATCATQRLADFLRHSSPNFGAIPSSTNVGPRTY-NH2 (disulfide 2-7; N-terminus assumed; SMILES CC[C@H](C)[C@H](NC(=O)[C@H](C)NC(=O)CNC(=O)[C@H](Cc1ccccc1)NC(=O)[C@H](CC(N)=O)NC(=O)[C@@H]1CCCN1C(=O)[C@H](CO)NC(=O)[C@H](CO)NC(=O)[C@H](Cc1c[nH]cn1)NC(=O)[C@H](CCCNC(=N)N)NC(=O)[C@H](CC(C)C)NC(=O)[C@H](Cc1ccccc1)NC(=O)[C@H](CC(=O)O)NC(=O)[C@H](C)NC(=O)[C@H](CC(C)C)NC(=O)[C@H](CCCNC(=N)N)NC(=O)[C@H](CCC(N)=O)NC(=O)[C@@H](NC(=O)[C@H](C)NC(=O)[C@@H]1CSSC[C@H](NC(=O)[C@@H](N)CCCCNC(=O)CC[C@H](NC(=O)CCCCCCCCCCCCCCCCCCC(=O)O)C(=O)O)C(=O)N[C@@H](CC(N)=O)C(=O)N[C@@H]([C@@H](C)O)C(=O)N[C@@H](C)C(=O)N[C@@H]([C@@H](C)O)C(=O)N1)[C@@H](C)O)C(=O)N1CCC[C@H]1C(=O)N[C@@H](CO)C(=O)N[C@@H](CO)C(=O)N[C@H](C(=O)N[C@@H](CC(N)=O)C(=O)N[C@H](C(=O)NCC(=O)N1CCC[C@H]1C(=O)N[C@@H](CCCNC(=N)N)C(=O)N[C@H](C(=O)N[C@@H](Cc1ccc(O)cc1)C(N)=O)[C@@H](C)O)C(C)C)[C@@H](C)O)
0.14 nM	13.3	1.86 nM	K([γGlu-C20 diacid])CNTATCATQRLAEFLRHSSPNFGAIPSSTNVGPETY-NH2 (disulfide 2-7; N-terminus assumed; SMILES CC[C@H](C)[C@H](NC(=O)[C@H](C)NC(=O)CNC(=O)[C@H](Cc1ccccc1)NC(=O)[C@H](CC(N)=O)NC(=O)[C@@H]1CCCN1C(=O)[C@H](CO)NC(=O)[C@H](CO)NC(=O)[C@H](Cc1c[nH]cn1)NC(=O)[C@H](CCCNC(=N)N)NC(=O)[C@H](CC(C)C)NC(=O)[C@H](Cc1ccccc1)NC(=O)[C@H](CCC(=O)O)NC(=O)[C@H](C)NC(=O)[C@H](CC(C)C)NC(=O)[C@H](CCCNC(=N)N)NC(=O)[C@H](CCC(N)=O)NC(=O)[C@@H](NC(=O)[C@H](C)NC(=O)[C@@H]1CSSC[C@H](NC(=O)[C@@H](N)CCCCNC(=O)CC[C@H](NC(=O)CCCCCCCCCCCCCCCCCCC(=O)O)C(=O)O)C(=O)N[C@@H](CC(N)=O)C(=O)N[C@@H]([C@@H](C)O)C(=O)N[C@@H](C)C(=O)N[C@@H]([C@@H](C)O)C(=O)N1)[C@@H](C)O)C(=O)N1CCC[C@H]1C(=O)N[C@@H](CO)C(=O)N[C@@H](CO)C(=O)N[C@H](C(=O)N[C@@H](CC(N)=O)C(=O)N[C@H](C(=O)NCC(=O)N1CCC[C@H]1C(=O)N[C@@H](CCC(=O)O)C(=O)N[C@H](C(=O)N[C@@H](Cc1ccc(O)cc1)C(N)=O)[C@@H](C)O)C(C)C)[C@@H](C)O)
